Values quoted from earlier work, collected in publication PMC7290323.

Target: GPP130 luminal domain (Homo sapiens) (UniProt O00461)
Sequence of UniProt O00461 (O00461 34-696): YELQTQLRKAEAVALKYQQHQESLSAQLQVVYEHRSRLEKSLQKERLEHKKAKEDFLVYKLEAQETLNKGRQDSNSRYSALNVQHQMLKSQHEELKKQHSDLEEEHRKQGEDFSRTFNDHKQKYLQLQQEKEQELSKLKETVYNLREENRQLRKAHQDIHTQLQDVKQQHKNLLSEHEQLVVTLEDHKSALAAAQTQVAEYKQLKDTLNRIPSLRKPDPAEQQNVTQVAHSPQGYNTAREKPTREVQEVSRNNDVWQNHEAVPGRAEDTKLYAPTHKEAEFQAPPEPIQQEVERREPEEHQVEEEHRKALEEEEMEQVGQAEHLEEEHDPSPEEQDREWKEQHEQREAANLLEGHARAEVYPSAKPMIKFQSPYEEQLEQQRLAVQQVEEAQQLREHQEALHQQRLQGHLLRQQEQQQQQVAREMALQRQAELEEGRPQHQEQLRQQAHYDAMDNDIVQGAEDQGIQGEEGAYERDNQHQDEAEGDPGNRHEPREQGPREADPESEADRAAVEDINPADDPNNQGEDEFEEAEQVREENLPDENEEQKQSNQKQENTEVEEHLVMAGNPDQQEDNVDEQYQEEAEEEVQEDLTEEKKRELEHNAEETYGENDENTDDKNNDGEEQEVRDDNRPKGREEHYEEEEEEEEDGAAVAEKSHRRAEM

Question: With “Shiga toxin 1 B subunit (STxB/STx1B) (from UniProt Q32GM0)” as the substance, how does the Kd read?
Answer: The Kd was 150 nM.
